Source: article doi:10.1101/2021.07.28.453719
pKd: −log10 of the molar value.

How the values were obtained:
Test in all cases: ITC
[1] = molecular target: second bromodomain (BD2) of BRD4 (human)
[2] = molecular target: BRD2-L108AzF mutant (photo-responsive bromodomain analogue) (human)
[3] = molecular target: first bromodomain (BD1) of BRD2, wild type (human)
[4] = molecular target: BRD3-L68AzF mutant (photo-responsive bromodomain analogue) (human) (UniProt Q15059)
[5] = molecular target: BRDT-L61AzF mutant (photo-responsive bromodomain analogue) (human)
[6] = molecular target: first bromodomain (BD1) of BRDT, wild type (human)

pKd [1] | pKd [2] | pKd [3] | pKd [4] | pKd [5] | pKd [6] | Substance
4.24 | – | – | – | – | – | ILF3 variant peptide AKacGALLKacG (aa 99-106) 15 carrying L102A
4.48 | – | – | – | – | – | diacetylated ILF3 peptide 10 (AKacGLLLKacG)
– | 4.03 | 4.56 | 4.85 | 4.87 | 4.86 | tetra-acetylated histone H4 peptide (H4Kac4) 2 (from UniProt P62805 2-22)
